Biological target: mouse glycophorin-A (GYPA) on the mouse erythrocyte surface (mouse) (UniProt P14220)
Experiment: equilibrium binding to mouse erythrocytes, flow cytometry, one-site binding fit

ERY1-OVA (ovalbumin chemically conjugated with ERY1 peptide through SMCC), sequence (P01012 2-386, form in doubt): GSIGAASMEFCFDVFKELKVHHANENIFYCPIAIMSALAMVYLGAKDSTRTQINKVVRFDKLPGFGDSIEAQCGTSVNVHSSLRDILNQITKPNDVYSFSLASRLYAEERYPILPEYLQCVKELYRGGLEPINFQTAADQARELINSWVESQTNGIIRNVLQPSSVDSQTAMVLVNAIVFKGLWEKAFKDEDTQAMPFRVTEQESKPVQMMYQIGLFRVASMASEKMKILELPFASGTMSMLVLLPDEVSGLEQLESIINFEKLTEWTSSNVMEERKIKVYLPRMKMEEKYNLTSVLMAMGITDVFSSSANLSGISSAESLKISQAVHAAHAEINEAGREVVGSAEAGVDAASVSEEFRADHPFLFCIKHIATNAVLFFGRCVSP

Kd: 6.2 nM
Substance: ERY1-OVA (ovalbumin chemically conjugated with ERY1 peptide through SMCC) (from UniProt P01012 2-386)
